According to the supplement of paper PMC9170038:

Tested on: K4 kissing-loop RNA reporter
Assay: apparent KD of K4 kissing-loop reporter; higher = weaker reporter binding
Details: Eterna round: R107
Protocol: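 RNA-MaP round R107: designed RNA switches with theophylline, tryptophan, arginine or FMN aptamers are transcribed on-chip within common flanks. They are titrated with a labelled K4 kissing-loop RNA reporter in RNA-MaP buffer (100 mM Tris pH 7.5, 80 mM KCl, 4 mM MgCl2), without ligand or with the indicated ligand. Median apparent KD per design.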

[1] = input ligand: theophylline 20 uM
[2] = input ligand: tryptophan 2.4 mM
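Note: bound reporter read as fluorescence of individual clusters on recovered sequencing chips by microscopy, with normalized cluster intensities fitted with a binding model.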

Sequence	apparent KD of K4 kissing-loop reporter (input ligand: FMN 200 uM)	apparent KD of K4 kissing-loop reporter (input ligand: arginine 13.2 mM)	apparent KD of K4 kissing-loop reporter (input ligand: none)	apparent KD of K4 kissing-loop reporter [1]	apparent KD of K4 kissing-loop reporter [2]
UGAUACCAGACGGCCGCCACUCCCGCAGGUCAAAGACCUGCGAAGCUGGUUCUUCAGUGAUGUUGGAGGACCGGGUCUGGUAUCU [FiskerMod 24 - Jieux - Exclusion - Tryptophan B]	306 nM	230 nM	266 nM	263 nM	504 nM
UGAUACCAGACGGCCGCCACUCCUGCAGUCAAAAGACUGCUAAAGGAAAUCGUCCAGUGAUGUUGGAGGACCGGGUCUGGUAUCU [TrypBX 16 #SwitchBubble #Palindromic #StaticStem]	1120 nM	719 nM	1380 nM	991 nM	403 nM
UGAUACCAGACGGCCGCCACUGCACCAGUCAAUGACUGAGUGUGGUAAUGCUCAGUGAUGUUGAGUAGGACCGGGUCUGGUAUCU [Mod of Eli's TrypBX 8 v2]	135 nM	124 nM	131 nM	114 nM	124 nM
UGAUACCAGACUGAUACCAGCAAGUGAUGUUUGUUGAUCAAAAGCAGUCAAAGACUGCUUUGCCCUUGGCAGCAGUCUGGUAUCU [#10 K4 Theophylline B Exclusion]	167 nM	148 nM	166 nM	276 nM	141 nM
UGAUACCAGACUGAUACCAGCCAGUGAUGUUGGCUAAGCCAAAUAGGUGUCAAAGACACCGGCCCUUGGCAGCAGUCUGGUAUCU [TheoBX 2 #SwitchBubble #StaticStem]	133 nM	113 nM	126 nM	136 nM	119 nM
UGAUACCAGACUGAUACCAGCGAGUGAUGUUCGCUGAAAUCAGGGUCAAAGACCCUGUCUCGCCCUUGGCAGCAGUCUGGUAUCU [TheoBX 20 #SwitchBubble #StaticStem]	147 nM	120 nM	133 nM	185 nM	128 nM
UGAUAGGACAGAAGGAGCGGAAGUGAUGUUUCCUAAAGGAUAAAGGUGUCAAAGACACCCUUCCAGGUAGGUCGCUGUCCUAUCU [ArgBX 16 #Palindromic #SwitchBubble #StaticStem]	549 nM	923 nM	579 nM	532 nM	566 nM
UGAUAGGACAGAAGGAGCGGGAGUGAUGUUCCCAAAAGGGUAAGGUGUCAAAAGACACCCUUCCAGGUAGGUCGCUGUCCUAUCU	97.7 nM	105 nM	97.5 nM	102 nM	83.9 nM
UGAUAGGACAGAAGGAGCGGUAGUGAUGUUACCAAAAGGAUAAGGUGUCAAAAGACACCCUACCAGGUAGGUCGCUGUCCUAUCU	124 nM	112 nM	107 nM	85.1 nM	109 nM
UGAUAGGACAGAAGGAGCGGUAGUGAUGUUACCAAAAGGUUAAGGUGUCAAAAGACACCCUACCAGGUAGGUCGCUGUCCUAUCU	152 nM	164 nM	161 nM	126 nM	136 nM
UGAUAGGACAGAAGGAGCGGUAGUGAUGUUGCCAAAAGUAUAAGGUGUCAAAAGACACCCUACCAGGUAGGUCGCUGUCCUAUCU	319 nM	346 nM	354 nM	541 nM	340 nM
UGAUCUCGGCAGUGAUGUUGCAUAUGAGAAGGAGCGCACGAAAGUGCAGGUAGGUCGCUCAGCCAAAGAAAAUAAAACGAGAUCU [#SwitchBubble #K4Early]	93.4 nM	121 nM	101 nM	124 nM	82 nM
UGCGCUGUGUCCUAAAAUGUCCUCCGGGAUACCAGAGUCUUUUUAUUCCCUUGGCAGCUUGAGUGAUGUUUGAUGCCGUUCUUGU [xxbxymullin]	811 nM	478 nM	790 nM	519 nM	607 nM
UGGACAUGACUCGAUAAGAGUCAAUGGGAUACCAGUGACGAAAGUCACCCUUGGCAGCUCAACUGCCAGUGAUGUUGGUAGUCCA [Astros-Elo-mod#2]	231 nM	129 nM	224 nM	134 nM	166 nM
UGGACCUGACUCGAUAAGAGUCAAGGAGAUACCAGCCACGAAAGUGGCCCUUGGCAGCUCUGCCAGUGAUGUUGGUCAAGGUCCU [#SwitchBubble 7 #StaticStem]	976 nM	696 nM	912 nM	393 nM	776 nM
UGGAGUUGACGAAAAGUCAACUCCAGAGAAGGAGCGGACGAAAGUCCAGGUAGGUCGCUCACUACCAGUGAUGUUGGUACUAAAA	167 nM	190 nM	204 nM	204 nM	181 nM
UGGAGUUGACGAAAAGUCAACUCCUGGGAAGGAGCGGACGAAAGUCCAGGUAGGUCGCUCACUACCAGUGAUGUUGGUACUUAAA	229 nM	350 nM	293 nM	299 nM	206 nM
UGGAUAUAGUGAUGUUAUAUAGAGAUGGAUACCAGCUAAGAGAAUAGCCCUUGGCAGCCGAAAGAAGUAUCAUUAGAGAAGAAUG [ExTheophyl.Ae]	294 nM	231 nM	280 nM	253 nM	212 nM
UGGCGGACGAUCCGGAGUGAUGUUCCGGAUACCAGCAGAAGAGCCUGCCCUUGGCAGCCGUACGACGCUGGGAGAGUCCGGCGUC [Soteina]	83.8 nM	90.3 nM	81.1 nM	66.7 nM	76.9 nM
UGGGCCGCCUGAGGAUAUAGAGACGAGUGAUGUUCGUGGAUAAGAGCCAGUGAUGUUGGGUUAUUUCUAGAAGGCGGGCGAACUU [Exclusion FMN B GF9]	144 nM	95.1 nM	98.6 nM	164 nM	131 nM
UGGUUUAACUGAAGGAGCGGCAAUUGAUAAGUAGAUAUAGUGAUGUUAUAUAAGAUAGAGAGCCAGGUAGGUCGCAGAGGUAUUU [ExArgB.P]	215 nM	218 nM	212 nM	248 nM	197 nM
UGUAAUUCGGCGGCCGCCACUGACCAUAGCCUUCGAUGGCCAGUGAUGUUGGCCUCUGGCUCUAACAGGACCGGGCCGAAUUGCG [Sotetiqu]	243 nM	133 nM	178 nM	157 nM	116 nM

Sequence	apparent KD of K4 kissing-loop reporter (input ligand: FMN 200 uM)	apparent KD of K4 kissing-loop reporter (input ligand: arginine 13.2 mM)	apparent KD of K4 kissing-loop reporter (input ligand: none)	apparent KD of K4 kissing-loop reporter [1]	apparent KD of K4 kissing-loop reporter [2]
UGUACCGACUCAGGAUAUGUCGUCGAAAGACGAAAUGGAGUGAUGUUCCUUAAACUGCGAAAGCAGACAGAAGGGAGUUGGUACU [FmnBS 29 C9+G77]	137 nM	200 nM	235 nM	233 nM	216 nM
UGUACCGAGUCAGGAUAUCAUAAUAAAUCCAGUGAUGUUGGAAUAACCAGUACAAAGUACUGGCCUUGAGAAGGGACUUGGUACU [FmnBS 3 #SwitchBubble #StaticStem]	167 nM	146 nM	163 nM	147 nM	147 nM
UGUAUGUGAUUUGAUACCAGACCAGCUGGUGGUUCACGAGUGAUGUUCGUGUUGGUUUGGGUCCCUUGGCAGCAAAUCGCAUACU [KL-SSTheoB12]	159 nM	121 nM	144 nM	128 nM	140 nM
UGUAUGUGAUUUGAUACCAGACCAGCUGGUGUUUCAAGAGUGAUGUUCUUGUAGGUUUGGGUCCCUUGGCAGCAAAUCGCAUACU [KL-SSTheoB15]	159 nM	122 nM	152 nM	122 nM	131 nM
UGUCAUUGGUCGGCCGCCACUAGGACCGGGUAUAACCUAGUGAUGUUAGUAAGUACGGCCGCCACUAGGACCGGGACCGAUGACU [KL-SSTryp-B19 #DoubleAptamer]	484 nM	369 nM	583 nM	462 nM	87.5 nM
UGUCAUUGGUCGGCCGCCACUUCAUGUAGAGUGAUGUUUUGUAGGACGGAUCGAAAGAUCUGUCGGAGGACCGGGACCGAUGACU [FiskerMod 16 - Jieux - Same State - Tryptophan B]	121 nM	119 nM	134 nM	266 nM	1690 nM
UGUCAUUGGUCGGCCGCCACUUCGUAUGAAGUGAUGUUUUGUAGAUUGUGUUGAAAGGUGUGGUGAAGGACCGGGACCGAUGACU [FiskerMod 23 - Jieux - Same State - Tryptophan B]	898 nM	623 nM	1010 nM	1050 nM	769 nM
UGUCAUUGGUCGGCCGCCACUUGAAGGUCAAAGACCAUAGAGUGAUGUUCUAAGACGAAAGUCACAAGGACCGGGACCGAUGACU [TrypBS 3 #SwitchBubble #K4Middle]	361 nM	134 nM	133 nM	265 nM	607 nM
UGUCAUUGGUCGGCCGCCACUUUAUAUGGAGUGAUGUUUUGUAAAUUGUGUUGAAAGGUGUGGUAAAGGACCGGGACCGAUGACU [FiskerMod 26 - Jieux - Same State - Tryptophan B]	1030 nM	637 nM	931 nM	727 nM	651 nM
UGUCAUUGGUCUGAUACCAGCUUGAUCGGAAACGAUCUGCUGGAGUGAUGUUCCAAGUAAAGCCCUUGGCAGCAGACCGAUGACU [TheoBS 8 #SwitchBubble #StaticStem]	129 nM	59.8 nM	103 nM	125 nM	102 nM
UGUCAUUGGUCUGAUACCAGGUUGAUCGGUAAACGAUCUCCUGGAGUGAUGUUCCAAAAUAUCCCUUGGCAGCAGACCGAUGACU [TheoBS 6 #SwitchBubble #StaticStem]	571 nM	320 nM	545 nM	492 nM	350 nM
UGUCAUUGGUCUGAUACCAGUACCCUUGGCAGCCGAGGAGUGAUGUUCCAAGGAUACCAGUACCCUUGGCAGCAGACCGAUGACU [TheoBS 30 #DoubleAptamer #SwitchBubble]	219 nM	178 nM	186 nM	108 nM	215 nM
UGUCAUUGGUCUGAUACCAGUUGAUGACGAAUACGUCAACUGGAGUGAUGUUCCAAUAACAACCCUUGGCAGCAGACCGAUGACU [MAT - Same State Theophlline B - Mod of Eli - D3]	557 nM	494 nM	530 nM	953 nM	563 nM
UGUCUACCGGGAAGGAGCGUGAAUGAUAAUGGAUAUAGUGAUGUUAUAUAUACGAACGAAUCGCAGGUAGGUCGCCCGGAUCCCU [SSArgB.W]	431 nM	419 nM	606 nM	431 nM	481 nM
UGUGUACCGGGAAGGAGCGUGAAUGAGAAUGGAUAUAGUGAUGUUAUGUAUACGAACGAAUCGCAGGUAGGUCGCCCGGAUCCCU [SSArgB.Z]	513 nM	320 nM	677 nM	396 nM	461 nM
UGUUACCAGUGAUGUUGGGAGAUGAAGAGCAAGGAUAUGUGAUAGUACAGAAGGUGCGUCGUCGUGAUUAUCACGCUCUGUGUUA [theeternabot_exclusion_KL_FMN_A_8]	266 nM	98.3 nM	141 nM	138 nM	111 nM
UGUUAUGUAUCAGGAUAUUAGUGAUGUUUGUUGAUGUUAGUGAUGUUGAUAUUUGUUUUAUGUAUUUAAGAAGGGAUUGAGAUGU [ooilmullin]	53.9 nM	19.2 nM	38.7 nM	27.8 nM	41.4 nM
UGUUUUUACUGAAGGAGCGGCAAUUGAUACGUAGAUAUAGUGAUGUUAUAUAAGAUAGAGAGCCAGGUAGGUCGCAGAAUGUAUC [ExArgB.aC]	214 nM	212 nM	237 nM	252 nM	231 nM
UUAAUUAAGACGGCCGCCACUGAAUUAGAGUGAUGUUCUAAAAUUACUAAAUUAAAUUUAUUCAACAGGACCGGGUCAAUUAUUA [JR_SSTryptoB_Sub009]	516 nM	435 nM	560 nM	527 nM	524 nM
UUAGAGAUCUCAGGAUAUGAGUGAUGUUGAUAUCAAGAUCUGAGAUAGAAUUCUAUCUCAGAUCAAUCAGAAGGGAGAUCUCAUU [AK1.3 Exc FMN B]	172 nM	109 nM	194 nM	411 nM	263 nM
UUAGGAGAGGGAAGGAGCGUGAAAGAGAAAGAAUAUAGUGAUGUUAUAUAGAAGAAAGAAUCACAGGUAGGUCGCCCGGAGGAGG [SSArgB.C]	672 nM	520 nM	632 nM	225 nM	518 nM
